Measured values as given in the supplement of paper PMC9732359.
± gives the uncertainty stated by the source.

Test: protein stability index of a GFP-peptide fusion (yeast GPS) (PSI 1-4); higher = more stable; sorted into four equal gates, so the index is relative within each strain
How it was run: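 The protein stability index of a peptide was calculated by multiplying its read frequency in each gate by that gate's number and adding the products. The peptides were tiled 17-residue stretches of yeast proteins, fused downstream of GFP on a Cherry-expressing plasmid and carried in yeast as a pooled library. Mid-log cultures in leucine-free medium were sorted into four equal gates by GFP/Cherry ratio, and each gate's plasmids were PCR-amplified and Illumina-sequenced.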

Sequence	protein stability index (doa10∆)	protein stability index (pdr5∆)	protein stability index (san1∆)	protein stability index (ubr1∆)
QKVLNAHRQRAMEARSS [SMC4]	1.95 ± 0.12	2.36 ± 0.15	1.98 ± 0.15	1.32 ± 0.073
QLAGKSGEDTNVGLPIL [YOR098C/NUP1]	2.86 ± 0.15	3.32 ± 0.084	3.36 ± 0.062	3.25 ± 0.052
QLAVRAPKGQNTLILRG [RPL18A]	2.86 ± 0.28			
QLDEFKNKYLKDVLAQT [SWP82]	2.52 ± 0.12	2.52 ± 0.15	2.4 ± 0.1	2.36 ± 0.057
QLDSYLVNGFSQSQQKL [MED2]	2.02 ± 0.05	2.35 ± 0.063	2.38 ± 0.064	2.72 ± 0.046
QLEDESSRLEFVKGISR [YML103C/NUP188]	3.45 ± 0.095	3.2 ± 0.11	3.33 ± 0.067	3.21 ± 0.099
QLFNWCLMRSLHKLELK [DSN1]	1.17 ± 0.058	1.26 ± 0.059	1.14 ± 0.13	1.19 ± 0.058
QLFSTFDRLNGNDTISK [SSN2]	3.03 ± 0.15	3.02 ± 0.087	3.19 ± 0.076	2.96 ± 0.048
QLIFRQQTGLVDAITRC [SNU114]	2.97 ± 0.087	2.69 ± 0.058	3.04 ± 0.052	2.47 ± 0.041
QLKYDTSVQEKELMLQS [YIL149C/MLP2]	2.23 ± 0.11	2.88 ± 0.17	2.81 ± 0.1	2.53 ± 0.12
QLLDIAEFKKENLADLD [LIN1]	1.48 ± 0.092	1.55 ± 0.097	1.24 ± 0.12	2.95 ± 0.096
QLNEKLVGRLRKCETQK [YCS4]	2.03 ± 0.086	1.44 ± 0.062	2.22 ± 0.1	2 ± 0.061
QLVYKRGFGKINKQRVP [RPL7A]	2.46 ± 0.071	2.4 ± 0.079	3.24 ± 0.11	2.85 ± 0.059
QMDQQLQYTALTGSPNN [ARP7]	2.91 ± 0.11	3.36 ± 0.096	3.33 ± 0.071	3.13 ± 0.063
QMTQIMDIMEDFLRYIN [SNF2]	1.21 ± 0.032	1.33 ± 0.034	1.4 ± 0.08	1.43 ± 0.027
QNAADLQQICRVRNKDI [RPL9A]	2.82 ± 0.088	3.3 ± 0.045	2.59 ± 0.087	2.89 ± 0.06
QNDELTMGMRALLKLSV [DIS3]	2.01 ± 0.094	2.49 ± 0.078	1.55 ± 0.067	2.7 ± 0.066
QNFAEFMTKLLEVANDL [IRR1]	2.06 ± 0.11	2.29 ± 0.097	3.13 ± 0.085	2.65 ± 0.14
QNHNSKSTDNSAIRQVF [IRR1]	2.61 ± 0.039	2.8 ± 0.037	2.85 ± 0.042	2.739 ± 0.027
QNIETRQLANLIPFIVK [NUT1]	1.61 ± 0.054	1.58 ± 0.041	1.41 ± 0.086	1.63 ± 0.039
QNIMTLPDGKNGNLEEE [MED6]	3.37 ± 0.064	3.23 ± 0.11	3.37 ± 0.056	3.31 ± 0.091
QNKLFYITNADDSTKFQ [SIR3]	2.96 ± 0.085	3.02 ± 0.084	3.01 ± 0.078	3.27 ± 0.067
QNNEQNPIDPFNIIREF [YDL116W/NUP84]	3.07 ± 0.052	3.15 ± 0.051	3.2 ± 0.04	3.17 ± 0.041
QNRRLAFEELEGSWDRG [PRP8]	2.91 ± 0.17	3.31 ± 0.17	3.24 ± 0.15	3.31 ± 0.16
QNVAGDKTAVKLDTEVK [SWP82]				3.32 ± 0.089
QPAQPRESRIVSTEGNV [RPL21A]	2.49 ± 0.07	2.83 ± 0.074	3.04 ± 0.069	2.87 ± 0.086
QPMISPDNSIFGDTKSE [SWI3]	3.14 ± 0.059	3.38 ± 0.087	2.94 ± 0.098	3.1 ± 0.061
QPNARALERYDEAEGRF [SMC1]	3.44 ± 0.12	3.58 ± 0.1	3.17 ± 0.074	3.29 ± 0.097
